{
  "source": "patent US7361341B2",
  "about": "“Methods of treating cancer using antibodies that immunospecifically bind to trail receptors” (Human Genome Sciences, Inc., priority 2001, dated 2008)",
  "key": {"[1]": {"test_system": "human primary hepatocytes", "assay": "Caspase activation in human primary hepatocytes", "assay_type": "cell-based", "conditions": "6 hrs following treatment; T1014G03 62.5-1000 ng/ml, TRAIL 15.6-1000 ng/mL", "protocol": "(§1) The effect of T1014G03 (lot AB22125-M2) in human primary hepatocytes was determined by measuring either caspase activation or cell viability. Human hepatocytes were treated with 15.6, 62.5, 250 or 1000 ng/mL of TRAIL (amino acid residues 114-281, Biomol Research Laboratories Inc, Plymouth Meeting, Pa.), 62.5, 125, 250, or 1000 ng/ml of isotype control mAb (hlgG1,CAT002) or 62.5, 125, 250, or 1000 ng/ml T1014G03. Caspase activation was determined at 6 hrs following treatment, while viability was determined at 24 hrs following treatment.\n(§2) Caspase activity was measured using a fluorimetric assay utilizing the caspase substrate Rhodamine conjugated DEVD, (e.g., Homogeneous Fluorimetric Caspases Assay available from Roche Molecular Biochemicals (Indianapolis, Ind.)). Cell viability was determined using an ALAMAR Blue™ (Biosource International, Camarillo, Calif.) assay. […] In contrast to TRAIL, T1014G03 treatment was found not to effect either caspase or cell viability in human hepatocytes."}, "[2]": {"test_system": "human primary hepatocytes", "assay": "Cell viability of human primary hepatocytes (ALAMAR Blue)", "assay_type": "cell-based", "conditions": "24 hrs following treatment; T1014G03 62.5-1000 ng/ml, TRAIL 15.6-1000 ng/mL", "protocol": "as §1, §2"}},
  "data": [
    {"substance": "TRAIL: TRAIL (amino acid residues 114-281, Biomol Research Laboratories Inc)", "values": [
      {"measurement": "caspase activity", "setting": "[1]", "result": "induced caspase activity at the highest concentration tested"},
      {"measurement": "cell viability", "setting": "[2]", "result": "reduced cell viability at all concentrations tested"}
    ]}
  ]
}
